Reference: article PMC10055539 (Research Square, 2023)
Ends that are not written are not given here. * marks the point of attachment. Cbz = O=C(OCc1ccccc1)*

B2: Thermoplasma acidophilum 20S proteasome α subunit, wild type (natural protein, T. acidophilum)
chain: MQQGQMAYDRAITVFSPDGRLFQVEYAREAVKKGSTALGMKFANGVLLISDKKVRSRLIEQNSIEKIQLIDDYVAAVTSGLVADARVLVDFARISAQQEKVTYGSLVNIENLVKRVADQMQQYTQYGGVRPYGVSLIFAGIDQIGPRLFDCDPAGTINEYKATAIGSGKDAVVSFLEREYKENLPEKEAVTLGIKALKSSLEEGEELKAPEIASITVGNKYRIYDQEEVKKFL
notes: proteasome subunit alpha of the Thermoplasma acidophilum 20S proteasome; Single subunit of m1, written for the subunit-subunit rows of the structures; also called T20S α subunit; source: part of the purified T20S (purified as described [42], via 8XHis tags on the C-terminus of β subunit)
B3: Thermoplasma acidophilum 20S proteasome α subunit with the L81Y mutation (natural protein, T. acidophilum)
chain: MQQGQMAYDRAITVFSPDGRLFQVEYAREAVKKGSTALGMKFANGVLLISDKKVRSRLIEQNSIEKIQLIDDYVAAVTSGYVADARVLVDFARISAQQEKVTYGSLVNIENLVKRVADQMQQYTQYGGVRPYGVSLIFAGIDQIGPRLFDCDPAGTINEYKATAIGSGKDAVVSFLEREYKENLPEKEAVTLGIKALKSSLEEGEELKAPEIASITVGNKYRIYDQEEVKKFL
notes: proteasome subunit alpha of the Thermoplasma acidophilum 20S proteasome, L81Y; Subunit of the T20S-αL81Y proteasome whose cryo-EM structure is solved here; also called T20S-αL81Y α subunit; source: part of the purified T20S-αL81Y (overlapping PCR site-directed mutagenesis; purified via 8XHis tags on the C-terminus of β subunit)

Key:
[1] = target: Thermoplasma acidophilum wild type 20S proteasome (T. acidophilum) (UniProt P25156)
[2] = target: Mammalian 20S proteasome isolated from bovine liver (bovine (isolated from bovine liver), UniProt Q2YDE4 1-246; Q3T0Y5 1-234; Q3ZCK9 1-261; Q3ZBG0 1-248; Q5E987 1-241; Q3T0X5 …); experiment: cell-based or functional assay
[3] = target: Thermoplasma acidophilum wild type 20S proteasome (T. acidophilum) (UniProt P25156); remark: listed apart in the source
[4] = target: B2; experiment: cryo-EM structure; 0.5 mg/mL WT T20S in 50mM Tris pH 7.4, 150mM NaCl; Titan Krios; homogeneous refinement with D7 symmetry; closed gate; conditions: both partners purified
[5] = target: the molecule itself; experiment: cryo-EM structure; 0.5 mg/mL T20S-αL81Y in 50mM Tris pH 7.4, 150mM NaCl; Titan Krios; homogeneous refinement with D7 symmetry; partially open gate
[6] = target: B3; experiment: as above; conditions: both partners purified
[7] = target: the molecule itself; experiment: cryo-EM structure; 0.5 mg/mL WT T20S in 50mM Tris pH 7.4, 150mM NaCl; Titan Krios; homogeneous refinement with D7 symmetry; closed gate

With “N-acetylated PAN C-terminus peptide, three residues (Ac-LYR)” the LFP hydrolysis (rfu/min) by 7nM WT T20S with N-terminally acetylated peptide (200 μM), relative to DMSO; gate opening [1] was 2 fold.

With Cbz-Tyr-Ala [Z-Tyr-Ala (carboxybenzyl-tyrosine-alanine), HbYX-like dipeptide mimetic] the “nLPnLD-AMC hydrolysis by mammalian 20S (0.5 nM), dose response of ZYA, normalized to DMSO: activation at saturation” value [2] was about 50 fold and the LFP hydrolysis (rfu/min) by 7nM WT T20S with ZYA (2.5mM), normalized to DMSO; gate opening [3] was 13 fold.

Work on Ac-LDVLYR [N-acetylated PAN C-terminus peptide, six residues] yielded an LFP hydrolysis (rfu/min) by 7nM WT T20S with N-terminally acetylated peptide (200 μM), relative to DMSO; gate opening [1] of over 10 fold.

B1: Thermoplasma acidophilum 20S proteasome β subunit (natural protein, T. acidophilum, UniProt P28061 9-211, looked up)
chain: TTTVGITLKDAVIMATERRVTMENFIMHKNGKKLFQIDTYTGMTIAGLVGDAQVLVRYMKAELELYRLQRRVNMPIEAVATLLSNMLNQVKYMPYMVQLLVGGIDTAPHVFSIDAAGGSVEDIYASTGSGSPFVYGVLESQYSEKMTVDEGVDLVIRAISAAKQRDSASGGMIDVAVITRKDGYVQLPTDQIESRIRKLGLIL
notes: proteasome subunit beta of the Thermoplasma acidophilum 20S proteasome; Single subunit of m1, written for the subunit-subunit rows of the structures; also called T20S β subunit; source: part of the purified T20S (purified as described [42], via 8XHis tags on the C-terminus of β subunit)
B1: binds [4]; binds [5]; binds [6].

B2: binds [7].

B3: binds [5].
